From US20220112288A1 (published 2022)
Residue numbers refer to the chain shown, from its start.

Assays:
[1] = molecular target: T1, human CD4 on cells (SKW3 cells; human PBMCs) (human, UniProt P01730 26-458); experiment: FACS primary screen, non-clonal hybridoma supernatant; SKW3 WT vs SKW3 CD4 KO cells, anti-mFc-647
T1 construct: whole, on cells; SKW3 CD4 knockout cells served as the negative cell line for the WT vs KO ratios; also called hCD4; SKW3 WT

[2] = molecular target: T1, human CD4 on cells (SKW3 cells; human …); experiment: FACS confirmation, supernatant on human PBMCs, anti-mFc 647, CD4+ gate
[3] = molecular target: T1, human CD4 on cells (SKW3 cells; human …); experiment: FACS confirmation, supernatant on SKW3 WT cells, anti-mFc 647 (Bkrd gMFI = 3300)
[4] = molecular target: T1, human CD4 on cells (SKW3 cells; human …); experiment: FACS confirmation, supernatant on SKW3 WT cells, anti-hu Kappa FITC (Bkrd gMFI = 2500)
[5] = molecular target: T1, human CD4 on cells (SKW3 cells; human …); experiment: FACS primary screen, non-clonal hybridoma supernatant; SKW3 WT vs SKW3 CD4 KO cells, anti-hKappa-FITC
[6] = molecular target: T1, human CD4 on cells (SKW3 cells; human …); experiment: FACS confirmation, supernatant on human PBMCs, anti-mFc 647, percent of viable cells
[7] = molecular target: T2, Recombinant human CD4 (R&D Systems, Cat. 10327-CD) (human, UniProt P01730 26-390, limits assumed); experiment: BLI (Octet Red 384), non-clonal supernatant captured on AMC sensors, 100 nM human CD4, 1:1 local fit;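 also: hybridoma antibodies from supernatants, one CD4 concentration giving single-point kinetics per supernatant, with curves fitted over both association and dissociation phases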
T2 construct: Bought protein; also called huCD4

[8] = molecular target: T2, Recombinant human CD4 (R&D Systems, …); experiment: BLI (Octet Red 384), non-clonal supernatant captured on AMC sensors, 100 nM human CD4
[9] = molecular target: T3, human CD4 on cells (SKW3 cells; human PBMCs) (human, UniProt P01730 26-458); experiment: FACS primary screen, hybridoma supernatant, SKW3 vs SKW3 CD4 KO cells;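 also: flow cytometry on mixed SKW3 and dye-labeled SKW3 CD4 knockout cells after 30 min at 4 °C with supernatant, ratio of binding signal on parental versus knockout cells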
T3 construct: whole, on cells; SKW3 CD4 knockout cells served as the negative cell line in the primary screen; also called hCD4; huCD4

[10] = molecular target: T3, human CD4 on cells (SKW3 cells; human …); experiment: FACS binning on SKW3 cells; competitor OKT4-A488; background 2163, max binding 8200
[11] = molecular target: T3, human CD4 on cells (SKW3 cells; human …); experiment: FACS confirmation, supernatant on human PBMCs;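 also: flow cytometry with hybridoma supernatants incubated on human PBMCs for 30 min at 4 °C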
[12] = molecular target: T3, human CD4 on cells (SKW3 cells; human …); experiment: FACS binning on SKW3 cells; competitor RPA-T4-PE-Dazzle 594; background 783, max binding 15000
[13] = molecular target: T3, human CD4 on cells (SKW3 cells; human …); experiment: FACS confirmation, supernatant on SKW3 cells; background gMFI 2500
[14] = molecular target: T3, human CD4 on cells (SKW3 cells; human …); experiment: FACS binning on SKW3 cells; competitor OKT4a; background 5000, max binding 35000
[15] = molecular target: T3, human CD4 on cells (SKW3 cells; human …); experiment: FACS confirmation, supernatant on SKW3 cells; background gMFI 3300
huCD4-HIS = molecular target: T4, huCD4-HIS (human, UniProt P01730 26-390, limits assumed); experiment: ELISA binning; competitor ibalizumab; 100 ng/mL huCD4-HIS, anti-HIS HRP; background 45, max binding 3000000
T4 construct: the ELISA is not described in the text of this stretch; also called human CD4-HIS

B1: 75110_03I08A (antibody, V domains shown)
VH: QVQLQESGPGLVKPSETLSLTCTVSGGSISSYYWSWIRQPPGKGLEWIGYIYYSGSTNYNPSLKSRVTISVDTSKNQFSLKLSSVTAADTAVYYCAREGEQWFYGLDVWGQGTTVTVSS
VL: EIVLTQSPGTLSLSPGERATLSCRASQSVSSTYLAWYQQKPGQAPRLLIYGSSSRATGIPDRFSGSGSGTDFTLTISRLEPEDFAVYYCQQYGNSFPITFGQGTRLEIK
notes: Tested as non-clonal hybridoma supernatant (AlivaMab Mouse Kappa), detected with anti-mouse Fc and anti-human kappa
Which “SKW3 WT vs KO anti-mFc-647” value [1] does the source give for B1 here?
The value was 7.6 fold.

And the “CD4+ gate RL1 Binding” value [2]?
The value was 338000.

And the gMFI [3]?
Its gMFI is 28000 gMFI.

What about the gMFI [4] of the same binder?
The gMFI was 6120 gMFI.

And the “SKW3 WT vs KO anti-hKappa-FITC” value [5]?
Its value is 2.2 fold.

What about the “CD4+ Percent Bound of Viable” value [6] of the same binder?
Its value is 32%.

B2: 75110_01H18A (antibody, V domains shown)
VH: QVQLQQWGAGLLKPSETLSLTCAVYGGSFSGYYWSWIRQSPGKGLEWIGEINQSGSTNYNPSLKSRVTISVDTSKNQFSLKLSSVTAADTAVYYCARVINWFDSWGQGTLVTVSS
VL: DIQMTQSPSSVSASVGDRVTITCRASQGISSWLAWYQQKPGKAPKLLIYAASSFQSGVPSRFSGSGSGTDFTLTISSLQTEDFATYYCQQANSFPYTFGQGTRLEIK
notes: Tested as non-clonal AlivaMab Mouse hybridoma supernatant (human variable regions and human kappa, mouse Fc); also called ADS75110 non-clonal supernatant 01H18A
B2 was tested. Which Kd [7] did it give?
The Kd was 0.902 nM.

What about the koff [7] of the same binder?
Its koff is 0.000148 s⁻¹.

What about the kon [7] of the same binder?
Its kon is 165000 M⁻¹ s⁻¹.

What about the Response [8] of the same binder?
The Response was 0.0657.

B3: 75110_02I16A (antibody, V domains shown)
VH: QVQLQQWGAGLLKPSETLSLTCDVYGGSFSGYYWTWIRQPPGKGLEWIGEINHSGTTNSNPSLKSRVTISVDTSKSQFSLRLSSVTAADTAVYFCTRELNWFDPWGQGTLVTVSS
VL: DIQMTQSPSSVSASVGDRVTITCRASQDIANWLAWYQQKPGKAPQLLIYAASSLLGGVPSRFSGSGSGADFTLTISSLHPEDFATYYCQQANSFPYTFGQGTKLEIK
notes: Tested as non-clonal AlivaMab Mouse hybridoma supernatant (human variable regions and human kappa, mouse Fc); also called ADS75110 non-clonal supernatant 02I16A
Which results are given for B3?
Kd [7]: 3.9 nM; koff [7]: 0.0012 s⁻¹; kon [7]: 308000 M⁻¹ s⁻¹; Response [8]: 0.0373

B4: 75110_05G15A (antibody, V domains shown)
VH: QVQLQESGPGLVKPSQTLSLTCTVSGGSISSGGYFWSWIRQHPGKGLEWIGCIYYSGSTYYIPSLKSRVTISVDTSKNQFSLKLRSVTAADTAVYYCARDGYDYWYFDLWGRGTLVTVSS
VL: not shown
Which results are given for B4?
SKW3 WT vs KO ratio, anti-hKappa-FITC [9]: 1.5; SKW3 WT vs KO ratio, anti-mFc-647 [9]: 2.8; OKT4-A488 signal with supernatant [10]: 8080; PBMCs CD4+ gate RL1 binding, anti-mFc 647 [11]: 147000; PBMCs CD4+ percent bound of viable [11]: 32%; RPA-T4-PE-Dazzle 594 signal with supernatant [12]: 15800; gMFI on SKW3 WT, anti-hu Kappa FITC [13]: 6000 gMFI; OKT4a signal (anti-hu A647) with supernatant [14]: 42300; gMFI on SKW3 WT, anti-mFc 647 [15]: 28600 gMFI; Ibalizumab ELISA binning signal (huCD4-HIS): 1.7e+06

B5: 75110_10K21A (antibody, V domains shown)
VH: EVQLVESGGGLVQPGGSLRLSCAASGFTFSSYWMTWVRQAPGKGLEWVANIKQDGSEKYYVDSVKGRFTISRDNAKNSLYLQMNSLRAEDTAVYYCVRDRYDALDIWGQGTMVTVSS
VL: AIQMTQSPSSLSASVGDRVTITCRASQGIRNDLNWYQQKPGKAPKLLIYAASSLQSGVPSRFSGSGSGTDFTLTISSLQAEDFATYYCLKDYNYPYTFGQGTKLEIK
notes: Tested as non-clonal AlivaMab Mouse hybridoma supernatant (human variable regions and human kappa, mouse Fc); also called ADS75110 non-clonal supernatant 10K21A
Which Kd [7] does the source give for B5 here?
Its Kd is 2.66 nM.

What about the koff [7] of the same binder?
The koff was 0.000362 s⁻¹.

And the kon [7]?
Its kon is 136000 M⁻¹ s⁻¹.

What about the Response [8] of the same binder?
The Response was 0.0687.

B6: 75110_04G16A (antibody, V domains shown)
VH: QVQLQESGPGLVKPSQTLSLTCTVSGDSISSGYYYWSWIRQHPGKGLEWIGYISYSGSTYYNPSLKSRLTISVNTSKNQFSLKLSSLTAADTAVYYCARDRPSNFDAFDIWGQGTMVTVSS
VL: EIVLTQSPGTLSLSPGERATLSCRASQSVGSTYLAWYQQKPGQAPRLLIYGAFSRATGIPDRFSGSGSGTDFTLTISRLEPEDFAVYYCQQYGSSPLTFGPGTKVDIK
notes: Tested as non-clonal AlivaMab Mouse hybridoma supernatant (chimeric: human variable regions and human kappa, mouse Fc, captured by anti-mouse IgG Fc sensors); also called ADS75110 non-clonal supernatant 04G16A
Which Kd [7] does the source give for B6 here?
The Kd was 0.95 nM.

What about the koff [7] of the same binder?
The koff was 7.1e-05 s⁻¹.

And the kon [7]?
Its kon is 74000 M⁻¹ s⁻¹.

And the Response [8]?
The Response was 0.15.

B7: 75110_01G11A (antibody, V domains shown)
VH: EVQLVESGGGLVQPGGSLRLSCAASGFTFSSYDMHWVRQATGKGLEWVSTIGTAGDTYYPGSVKGRFTISRENARNSLFLQMNSLRAGDTAVYYCARGGDYYYGMDVWGQGTTVTVSS
VL: B6 VL with S14F, S28N, V29T, G30Y, T32S, F53S, S54N, Y92H, S94T, L97F
notes: Tested as non-clonal AlivaMab Mouse hybridoma supernatant (human variable regions and human kappa, mouse Fc); also called ADS75110 non-clonal supernatant 01G11A
With B7 as the binder, how does the Kd [7] read?
Its Kd is 5.3 nM.

What about the koff [7] of the same binder?
Its koff is 0.00025 s⁻¹.

What about the kon [7] of the same binder?
The kon was 47000 M⁻¹ s⁻¹.

What about the Response [8] of the same binder?
The Response was 0.04.

B8: 75110_08H11A (antibody, V domains shown)
VH: B7 VH with R75K, F79Y, D100Y, Y101S
VL: B6 VL with R24G, G30S, F53S, Y92F, L97F
notes: Tested as non-clonal AlivaMab Mouse hybridoma supernatant (human variable regions and human kappa, mouse Fc); also called ADS75110 non-clonal supernatant 08H11A
Which results are given for B8?
Kd [7]: 2.9 nM; koff [7]: 0.00065 s⁻¹; kon [7]: 230000 M⁻¹ s⁻¹; Response [8]: 0.08

B9: 75110_01N04A (antibody, V domains shown)
VH: B7 VH with S31N, R75K, F79Y, Y101F, M105L
VL: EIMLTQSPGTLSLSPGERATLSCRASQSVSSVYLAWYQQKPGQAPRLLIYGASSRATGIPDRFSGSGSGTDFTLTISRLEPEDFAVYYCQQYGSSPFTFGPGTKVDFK
notes: Tested as non-clonal AlivaMab Mouse hybridoma supernatant (human variable regions and human kappa, mouse Fc); also called ADS75110 non-clonal supernatant 01N04A
Which Kd [7] does the source give for B9 here?
Its Kd is 2.2 nM.

And the koff [7]?
Its koff is 4.8e-05 s⁻¹.

And the kon [7]?
The kon was 22000 M⁻¹ s⁻¹.

What about the Response [8] of the same binder?
The Response was 0.06.
